Reference: patent publication CN116693676A

What was measured:
[1] = biological target: 肺炎支原体天然抗原(购自Microbix) (Mycoplasma pneumoniae); test: indirect ELISA, antigen coated at 2 ug/ml, antibody 0 ng/ml (blank)
[2] = biological target: 肺炎支原体天然抗原(购自Microbix) (Mycoplasma pneumoniae); test: indirect ELISA, antigen coated at 2 ug/ml, antibody 15 ng/ml
[3] = biological target: 肺炎支原体天然抗原(购自Microbix) (Mycoplasma pneumoniae); test: indirect ELISA, antigen coated at 2 ug/ml, antibody 3.75 ng/ml
[4] = biological target: 肺炎支原体天然抗原(购自Microbix) (Mycoplasma pneumoniae); test: indirect ELISA, antigen coated at 2 ug/ml, antibody 7.5 ng/ml
[5] = biological target: 肺炎支原体天然抗原(购自Microbix) (Mycoplasma pneumoniae); test: indirect ELISA, antigen coated at 2 ug/ml, antibody 0.94 ng/ml
[6] = biological target: 肺炎支原体天然抗原(购自Microbix) (Mycoplasma pneumoniae); test: indirect ELISA, antigen coated at 2 ug/ml, antibody 1.88 ng/ml

对照 (antibody)
OD450 (参考630nm) [1]: 0.015 OD | OD450 (参考630nm) [2]: 1.32 OD | OD450 (参考630nm) [3]: 0.403 OD | OD450 (参考630nm) [4]: 0.629 OD | OD450 (参考630nm) [5]: 0.118 OD | OD450 (参考630nm) [6]: 0.212 OD

B1: Anti-MP-22A9mut1 (antibody, mouse IgG1, kappa, V domains shown)
VH: QAYLQQSGAELVRSGASVKMSCKASGYTFTTYNMHWVKQTPGQGLEWIGYVHPGYGITYYSQKFKGKATLTADTSSSTAYMILSSLTSEDSAVYFCTRSYYGYSYWFFDVWGAGTTVTVSS
VL: NIVMTQSPKSVSMSVGERVTLNCKASENVGSYVAWYQQKPDRSPKLLIHGASNRYTGVPDRFTGSGSTTDFTLTISSVQAEDLADYHCGQTYNYPYTFGGGTKLEIKR
OD450 (参考630nm) [1]: 0.013 OD | OD450 (参考630nm) [2]: 1.92 OD | OD450 (参考630nm) [3]: 0.619 OD | OD450 (参考630nm) [4]: 1.39 OD | OD450 (参考630nm) [5]: 0.205 OD | OD450 (参考630nm) [6]: 0.391 OD

B2: Anti-MP-22A9mut3 (antibody, mouse IgG1, kappa, V domains shown)
VH: QAYLQQSGAELVRSGASVKMSCKASGYTFTTYNMHWVKQTPGQGLEWIGYVHPGYGITYYSQKFKGKATITADTSSSTAYMLLSSLTSEDSAVYFCTRSYYGYSYWFFDVWGAGTTVTVSS
VL: NIVMTQSPKSVSMSVGERVTLNCKASENVGSYVAWYQQKPDRSPKLLIHGASNRYTGVPDRFTGSGSTTDFTLTISSVQAEDLADYHCGQTYNYPYTFGGGTKLEIKR
OD450 (参考630nm) [1]: 0.016 OD | OD450 (参考630nm) [2]: 2.16 OD | OD450 (参考630nm) [3]: 0.906 OD | OD450 (参考630nm) [4]: 1.67 OD | OD450 (参考630nm) [5]: 0.359 OD | OD450 (参考630nm) [6]: 0.512 OD

B3: Anti-MP-22A9mut4 (antibody, mouse IgG1, kappa, V domains shown)
VH: QAYLQQSGAELVRSGASVKMSCKASGYTFTTYNMHWVKQTPGQGLEWIGYVHPGYGITYYSQKFKGKATLTADTSSSTAYMLLSSITSEDSAVYFCTRSYYGYSYWFFDVWGAGTTVTVSS
VL: NIVMTQSPKSVSMSVGERVTLNCKASENVGSYVAWYQQKPDRSPKLLIHGASNRYTGVPDRFTGSGSTTDFTLTISSVQAEDLADYHCGQTYNYPYTFGGGTKLEIKR
OD450 (参考630nm) [1]: 0.012 OD | OD450 (参考630nm) [2]: 1.98 OD | OD450 (参考630nm) [3]: 0.758 OD | OD450 (参考630nm) [4]: 1.47 OD | OD450 (参考630nm) [5]: 0.207 OD | OD450 (参考630nm) [6]: 0.401 OD

B4: Anti-MP-22A9mut2 (antibody, mouse IgG1, kappa, V domains shown)
VH: QAYLQQSGAELVRSGASVKMSCKASGYTFTTYNMHWVKQTPGQGLEWIGYVHPGYGITYYSQKFKGKATLTADTSSSTAYMLLSSLTSEDSAVYFCTRSYYGYSYWFFDVWGAGTTVTVSS
VL: NIVMTQSPKSVSMSVGERVTLNCKASENVGSYVAWYQQKPDRSPKLLIHGASNRYTGVPDRFTGSGSTTDFTLTISSVQAEDLADYHCGQTYNYPYTFGGGTKLEIKR
OD450 (参考630nm) [1]: 0.021 OD | OD450 (参考630nm) [2]: 2.23 OD | OD450 (参考630nm) [3]: 0.899 OD | OD450 (参考630nm) [4]: 1.6 OD | OD450 (参考630nm) [5]: 0.386 OD | OD450 (参考630nm) [6]: 0.534 OD

B5: Anti-MP-22A9mut6 (antibody, mouse IgG1, kappa, V domains shown)
VH: QAYLQQSGAELVRSGASVKMSCKASGYTFTTYNMHWVKQTPGQGLEWIGYVHPGYGITYYSQKFKGKATLTADTSSSTAYMLLSSITSEDSAVYFCTRSYYGYSYWFFDVWGAGTTVTVSS
VL: NIVMTQSPKSVSMSVGERVTLNCKASENVGSYVAWYQQKPDRSPKLLIHGASNRYTGVPDRFTGSGSTTDFTLTLSSVQAEDLADYHCGQTYNYPYTFGGGTKLEIKR
OD450 (参考630nm) [1]: 0.011 OD | OD450 (参考630nm) [2]: 2.01 OD | OD450 (参考630nm) [3]: 0.627 OD | OD450 (参考630nm) [4]: 1.42 OD | OD450 (参考630nm) [5]: 0.207 OD | OD450 (参考630nm) [6]: 0.339 OD

B6: Anti-MP-22A9mut5 (antibody, mouse IgG1, kappa, V domains shown)
VH: QAYLQQSGAELVRSGASVKMSCKASGYTFTTYNMHWVKQTPGQGLEWIGYVHPGYGITYYSQKFKGKATLTADTSSSTAYMLLSSITSEDSAVYFCTRSYYGYSYWFFDVWGAGTTVTVSS
VL: NIVMTQSPKSVSMSVGERVTLNCKASENVGSYVAWYQQKPDRSPKLLIHGASNRYTGVPDRFTGSGSTTDFTITISSVQAEDLADYHCGQTYNYPYTFGGGTKLEIKR
OD450 (参考630nm) [1]: 0.011 OD | OD450 (参考630nm) [2]: 2.03 OD | OD450 (参考630nm) [3]: 0.814 OD | OD450 (参考630nm) [4]: 1.68 OD | OD450 (参考630nm) [5]: 0.315 OD | OD450 (参考630nm) [6]: 0.536 OD
